Reference: patent US20220332804A1 (CSL INNOVATION, published 2022)

Assays:
Assay in all cases: SPR, antibody captured, C2 as analyte;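 note: biacore SPR at 37 °C, anti-C2 mAbs captured via goat anti-human IgG on CM5 chips, double-referenced sensorgrams fit to a 1:1 kinetic or steady-state model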
human C2 N424A = target: T1, human C2 N424A (human, UniProt P06681 21-752)
T1 sequence: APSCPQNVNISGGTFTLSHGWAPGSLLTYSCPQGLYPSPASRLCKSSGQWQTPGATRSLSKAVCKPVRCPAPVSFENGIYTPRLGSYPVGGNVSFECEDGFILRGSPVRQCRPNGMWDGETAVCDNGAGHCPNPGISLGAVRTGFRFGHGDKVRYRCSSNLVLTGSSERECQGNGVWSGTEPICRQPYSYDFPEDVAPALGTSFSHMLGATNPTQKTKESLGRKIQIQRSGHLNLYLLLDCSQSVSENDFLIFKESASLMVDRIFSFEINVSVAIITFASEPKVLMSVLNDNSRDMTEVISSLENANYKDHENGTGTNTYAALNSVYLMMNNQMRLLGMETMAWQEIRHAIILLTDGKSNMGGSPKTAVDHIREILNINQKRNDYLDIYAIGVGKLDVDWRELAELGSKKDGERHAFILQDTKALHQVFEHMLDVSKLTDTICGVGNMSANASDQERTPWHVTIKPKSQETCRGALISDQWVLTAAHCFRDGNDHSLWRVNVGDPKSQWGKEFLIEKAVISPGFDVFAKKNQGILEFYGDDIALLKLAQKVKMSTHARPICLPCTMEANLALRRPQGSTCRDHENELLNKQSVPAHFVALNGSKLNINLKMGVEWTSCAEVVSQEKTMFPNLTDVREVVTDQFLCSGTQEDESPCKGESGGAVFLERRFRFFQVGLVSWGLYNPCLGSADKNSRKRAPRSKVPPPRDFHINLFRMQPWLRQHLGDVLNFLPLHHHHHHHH

human C2 I438A = target: T2, human C2 I438A (human, UniProt P06681 21-752)
T2 sequence: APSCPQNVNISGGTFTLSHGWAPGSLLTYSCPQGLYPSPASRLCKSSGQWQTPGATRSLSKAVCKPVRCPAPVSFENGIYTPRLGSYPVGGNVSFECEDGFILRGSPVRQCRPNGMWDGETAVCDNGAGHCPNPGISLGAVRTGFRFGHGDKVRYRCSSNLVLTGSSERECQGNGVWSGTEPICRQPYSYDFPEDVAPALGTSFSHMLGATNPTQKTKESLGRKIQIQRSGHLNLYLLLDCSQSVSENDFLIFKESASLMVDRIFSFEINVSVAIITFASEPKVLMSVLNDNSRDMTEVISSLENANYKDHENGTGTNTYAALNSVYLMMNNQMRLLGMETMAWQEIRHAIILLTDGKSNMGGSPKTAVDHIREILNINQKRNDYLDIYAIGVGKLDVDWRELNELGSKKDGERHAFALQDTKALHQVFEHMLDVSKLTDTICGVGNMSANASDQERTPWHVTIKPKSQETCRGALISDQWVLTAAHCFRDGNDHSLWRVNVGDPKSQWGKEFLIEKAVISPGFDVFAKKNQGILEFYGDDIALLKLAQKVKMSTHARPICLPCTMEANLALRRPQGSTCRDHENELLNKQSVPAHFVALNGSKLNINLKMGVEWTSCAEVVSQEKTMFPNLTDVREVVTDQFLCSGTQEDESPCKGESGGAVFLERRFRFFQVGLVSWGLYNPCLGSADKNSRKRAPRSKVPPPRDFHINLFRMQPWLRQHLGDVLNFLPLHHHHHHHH

human C2 R688A = target: T3, human C2 R688A (human, UniProt P06681 21-752)
T3 sequence: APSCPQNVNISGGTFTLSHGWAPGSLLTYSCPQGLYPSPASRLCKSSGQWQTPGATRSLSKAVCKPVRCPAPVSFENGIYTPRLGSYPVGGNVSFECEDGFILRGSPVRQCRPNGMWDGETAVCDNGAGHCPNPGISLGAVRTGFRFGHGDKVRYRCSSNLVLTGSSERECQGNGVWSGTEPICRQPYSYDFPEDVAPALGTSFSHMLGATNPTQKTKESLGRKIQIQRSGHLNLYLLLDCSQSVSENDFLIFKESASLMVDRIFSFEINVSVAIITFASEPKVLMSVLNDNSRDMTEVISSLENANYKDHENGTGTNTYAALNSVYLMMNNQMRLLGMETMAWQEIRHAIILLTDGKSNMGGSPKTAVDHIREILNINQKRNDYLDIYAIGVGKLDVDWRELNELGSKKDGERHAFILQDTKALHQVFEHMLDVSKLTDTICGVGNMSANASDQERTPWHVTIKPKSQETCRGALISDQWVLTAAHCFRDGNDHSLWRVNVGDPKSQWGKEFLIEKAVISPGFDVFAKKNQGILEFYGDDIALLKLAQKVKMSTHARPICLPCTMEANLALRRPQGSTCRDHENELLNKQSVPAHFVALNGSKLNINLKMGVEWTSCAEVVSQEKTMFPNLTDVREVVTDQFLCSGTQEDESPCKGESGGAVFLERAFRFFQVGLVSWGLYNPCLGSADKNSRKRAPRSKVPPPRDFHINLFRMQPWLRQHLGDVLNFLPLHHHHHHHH

human C2 V722A = target: T4, human C2 V722A (human, UniProt P06681 21-752)
T4 sequence: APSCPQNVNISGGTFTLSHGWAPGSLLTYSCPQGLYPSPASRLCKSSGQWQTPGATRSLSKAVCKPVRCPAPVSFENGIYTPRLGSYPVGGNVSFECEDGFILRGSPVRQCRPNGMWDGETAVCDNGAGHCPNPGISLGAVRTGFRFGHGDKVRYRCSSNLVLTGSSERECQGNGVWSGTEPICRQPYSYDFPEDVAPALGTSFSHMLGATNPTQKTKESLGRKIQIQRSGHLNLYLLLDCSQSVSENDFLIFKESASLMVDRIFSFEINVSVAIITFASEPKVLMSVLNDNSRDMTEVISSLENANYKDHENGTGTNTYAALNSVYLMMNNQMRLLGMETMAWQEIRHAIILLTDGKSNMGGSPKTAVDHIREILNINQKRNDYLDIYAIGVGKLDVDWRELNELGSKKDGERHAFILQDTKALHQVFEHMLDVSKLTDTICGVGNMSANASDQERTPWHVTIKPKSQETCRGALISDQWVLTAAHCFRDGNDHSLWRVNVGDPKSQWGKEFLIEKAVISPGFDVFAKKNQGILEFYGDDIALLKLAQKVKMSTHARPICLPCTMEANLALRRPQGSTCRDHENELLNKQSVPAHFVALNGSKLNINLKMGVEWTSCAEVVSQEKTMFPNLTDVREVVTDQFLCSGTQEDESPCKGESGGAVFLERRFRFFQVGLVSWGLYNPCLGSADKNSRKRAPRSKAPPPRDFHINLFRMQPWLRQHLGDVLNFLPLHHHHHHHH

B1: RF16-226 (antibody, human IgG4 S228P, lambda)
heavy: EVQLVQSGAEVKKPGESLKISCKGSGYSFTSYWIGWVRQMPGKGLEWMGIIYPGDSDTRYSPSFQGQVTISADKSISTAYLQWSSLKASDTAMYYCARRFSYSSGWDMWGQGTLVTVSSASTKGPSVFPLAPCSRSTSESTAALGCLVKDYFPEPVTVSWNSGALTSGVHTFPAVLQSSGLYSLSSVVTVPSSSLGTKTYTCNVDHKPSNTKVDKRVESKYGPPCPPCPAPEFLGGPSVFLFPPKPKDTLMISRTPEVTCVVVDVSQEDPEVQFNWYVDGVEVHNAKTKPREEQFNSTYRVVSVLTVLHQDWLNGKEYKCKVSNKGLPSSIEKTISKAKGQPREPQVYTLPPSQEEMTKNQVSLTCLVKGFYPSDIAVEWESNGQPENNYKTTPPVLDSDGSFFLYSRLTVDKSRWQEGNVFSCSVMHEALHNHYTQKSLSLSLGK
light: SYELTQPPSVSVSPGQTARITCSGDALTSKYVAWYQQKSGLAPLLVIYEDTRRPSGIPAKFSGSSSGSVATLTISGAHGDDEADYYCYSTDASGHQRVFGGGTKLTVLSQPKAAPSVTLFPPSSEELQANKATLVCLISDFYPGAVTVAWKADGSPVKAGVETTKPSKQSNNKYAASSYLSLTPEQWKSHRSYSCQVTHEGSTVEKTVAPTECS
notes: pH-dependent anti-C2 antibody from a phage display library; also called WT
B1 showed a Kd (human C2 N424A) of 3.2 nM, a Kd (human C2 I438A) of 8.7 nM and a Kd (human C2 R688A) of 25.3 nM. For the same binder, the Kd (human C2 V722A) was 95.2 nM.
